Laboratory results taken from US20260265390A1 (SHANDONG SIMCERE BIOPHARMACEUTICAL, published 2026).
“And” between values parts separate entries of the source, which are not always exact repeats. Equal values may be shown once.

T1: human BCMA (B cell maturation antigen), expressed on cells (human, UniProt Q02223 1-184)
T1 construct: whole, on cells; Overexpressed on Flp-in CHO cells; also called Flp-inCHO-human BCMA cells; CD269
T1 sequence (looked up): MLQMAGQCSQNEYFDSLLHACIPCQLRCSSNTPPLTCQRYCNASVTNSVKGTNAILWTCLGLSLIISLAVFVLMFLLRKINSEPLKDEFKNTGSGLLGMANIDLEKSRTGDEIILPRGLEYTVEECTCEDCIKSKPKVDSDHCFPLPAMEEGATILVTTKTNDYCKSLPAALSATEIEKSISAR

B1: REGN5459 (bispecific antibody targeting BCMA and CD3, Regeneron, WO 2020018820 A1) (bispecific antibody, human IgG4 S228P, kappa)
heavy 1: EVQLVESGGGLVQPGGSLRLSCAASGFTFSNFWMTWVRQAPGKGLEWVANMNQDGSEKYYVDSVKGRFTISRDNAKSSLYLQMNSLRAEDTAVYYCARDREYCISTSCYDDFDYWGQGTLVTVSSASTKGPSVFPLAPCSRSTSESTAALGCLVKDYFPEPVTVSWNSGALTSGVHTFPAVLQSSGLYSLSSVVTVPSSSLGTKTYTCNVDHKPSNTKVDKRVESKYGPPCPPCPAPPVAGPSVFLFPPKPKDTLMISRTPEVTCVVVDVSQEDPEVQFNWYVDGVEVHNAKTKPREEQFNSTYRVVSVLTVLHQDWLNGKEYKCKVSNKGLPSSIEKTISKAKGQPREPQVYTLPPSQEEMTKNQVSLTCLVKGFYPSDIAVEWESNGQPENNYKTTPPVLDSDGSFFLYSRLTVDKSRWQEGNVFSCSVMHEALHNHYTQKSLSLSLGK
heavy 2: EVQLVESGGGLVQPGRSLRLSCAASGFTFDDYSMHWVRQAPGKGLEWVSGISWNSGSIGYADSVKGRFTISRDNAKNSLYLQMNSLRAEDTALYYCAKYGSGYGKFYYYGMDVWGQGTTVTVSSASTKGPSVFPLAPCSRSTSESTAALGCLVKDYFPEPVTVSWNSGALTSGVHTFPAVLQSSGLYSLSSVVTVPSSSLGTKTYTCNVDHKPSNTKVDKRVESKYGPPCPPCPAPPVAGPSVFLFPPKPKDTLMISRTPEVTCVVVDVSQEDPEVQFNWYVDGVEVHNAKTKPREEQFNSTYRVVSVLTVLHQDWLNGKEYKCKVSNKGLPSSIEKTISKAKGQPREPQVYTLPPSQEEMTKNQVSLTCLVKGFYPSDIAVEWESNGQPENNYKTTPPVLDSDGSFFLYSRLTVDKSRWQEGNVFSCSVMHEALHNRFTQKSLSLSLGK
light: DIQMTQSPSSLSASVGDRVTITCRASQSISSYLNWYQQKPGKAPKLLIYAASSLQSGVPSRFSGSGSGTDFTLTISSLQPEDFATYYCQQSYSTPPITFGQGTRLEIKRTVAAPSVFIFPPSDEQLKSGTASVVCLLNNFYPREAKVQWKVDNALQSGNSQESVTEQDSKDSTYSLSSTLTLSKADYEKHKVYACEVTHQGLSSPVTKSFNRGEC
notes: Positive control, expressed in Expi293F by the applicants; also called RGEN5459
B2: Tri-65 anti-BCMA-GPRC5D-CD3 trispecific antibody (other)
VHH: EVQLVESGGGLVQPGGSLRLSCAASESISSIHIMAWYRQAPGKQRELVAGIRNDGSTVYVDSVKGRFTISRDNAKNSLYLQMNSLRAEDTAVYYCNADQGFGSYSEWERRSRWGQGTTVTVSS
VH 1: EVQLVQSGAEVKKPGASVKVSCKTSGYIFTNFGITWVRQAPGQRLEWMGENYPRRINTYYNEKFKGRVTITADKSASTAYMELSSLRSEDTAVYYCSRKDIFGLSYALDYWGQGTTVTVSS
VL 1: DIQMTQSPSSLSASVGDRVTITCKASQNVGTNVAWYQHKPGKSPKALIYSASYQYSGVPSRFSGSGSGTDFTLTISSLQPEDVATYICQQYKNYPYTFGGGTKVEIK
VH 2: EVQLVESGGGVVQPGRSLRLSCAASGFTFTDYYMSWVRQAPGKGLEWVAMSRNKAKGHTIEYSSSVKGRFTISRDNSKNTLYLQMNSLRAEDTAVYYCARDTYESYDGYFDVWGQGTTVTVSS
VL 2: DIVMTQSPDSLAVSLGERATINCKSSQSLFNSRSRKNYLAWYQQKPGQTPKLLIYWASIRESGVPDRFSGSGSGTDFTLTISSLQAEDVAVYYCKQSYYLYTFGQGTKLEIK
chain 1: ESKYGPPCPPCPAPEAAGGPSVFLFPPKPKDTLMISRTPEVTCVVVDVSQEDPEVQFNWYVDGVEVHNAKTKPREEQFNSTYRVVSVLTVLHQDWLNGKEYKCKVSNKGLPSSIEKTISKAKGQPREPQVYTLPPSQEEMTKNQVSLWCLVKGFYPSDIAVEWESNGQPENNYKTTPPVLDSDGSFFLYSRLTVDKSRWQEGNVFSCSVMHEALHNHYTQKSLSLSLG
chain 2: ESKYGPPCPPCPAPEAAGGPSVFLFPPKPKDTLMISRTPEVTCVVVDVSQEDPEVQFNWYVDGVEVHNAKTKPREEQFNSTYRVVSVLTVLHQDWLNGKEYKCKVSNKGLPSSIEKTISKAKGQPREPQVYTLPPSQEEMTKNQVSLSCAVKGFYPSDIAVEWESNGQPENNYKTTPPVLDSDGSFFLVSRLTVDKSRWQEGNVFSCSVMHEALHNHYTQKSLSLSLG
notes: Trispecific antibody; Asymmetric (purification method C)
B3: Tri-38 anti-BCMA-GPRC5D-CD3 trispecific antibody (other)
VHH: EVQLVESGGGLVQPGGSLRLSCSASGFTLDYYMIGWFRQAPGKEREGLSSISPADGSTYYADSVKGRFTISRDSSKNTVYLQMNSLRAEDTAVYYCAAGNEATISWGFGPWEYDYWGQGTMVTVSS
VH 1: EVQLVQSGAEVKKPGSSVKVSCKASGYTFTSYGISWVRQAPGQGLEWMGEIYPRSGNTYYNEKFKGRVTLTADKSTSTAYMELSSLRSEDTAVYYCARGRAYGRNYPMDYWGQGTTVTVSS
VL 1: EIVLTQSPATLSLSPGERATLSCRASQSIGTSIHWYQQKPGQSPRLLIKYASESISGIPARFSGSGSGTDFTLTISSLEPEDFAVYYCQQSNSWPYTFGGGTKVEIK
VH 2: EVQLVESGGGVVQPGRSLRLSCAASGFTFTDYYMSWVRQAPGKGLEWVAMSRNKAKGHTIEYSSSVKGRFTISRDNSKNTLYLQMNSLRAEDTAVYYCARDTYESYDGYFDVWGQGTTVTVSS
VL 2: DIVMTQSPDSLAVSLGERATINCKSSQSLFNSRSRKNYLAWYQQKPGQTPKLLIYWASIRESGVPDRFSGSGSGTDFTLTISSLQAEDVAVYYCKQSYYLYTFGQGTKLEIK
chain 1: EPKSSDKTHTCPPCPAPEAAGGPSVFLFPPKPKDTLMISRTPEVTCVVVDVSHEDPEVKFNWYVDGVEVHNAKTKPREEQYNSTYRVVSVLTVLHQDWLNGKEYKCKVSNKALPAPIEKTISKAKGQPREPQVYTLPPSREEMTKNQVSLWCLVKGFYPSDIAVEWESNGQPENNYKTTPPVLDSDGSFFLYSKLTVDKSRWQQGNVFSCSVMHEALHNHYTQKSLSLSPG
chain 2: EPKSSDKTHTCPPCPAPEAAGGPSVFLFPPKPKDTLMISRTPEVTCVVVDVSHEDPEVKFNWYVDGVEVHNAKTKPREEQYNSTYRVVSVLTVLHQDWLNGKEYKCKVSNKALPAPIEKTISKAKGQPREPQVYTLPPSREEMTKNQVSLSCAVKGFYPSDIAVEWESNGQPENNYKTTPPVLDSDGSFFLVSKLTVDKSRWQQGNVFSCSVMHEALHNHYTQKSLSLSPG
notes: Trispecific antibody; Asymmetric (purification method B)
B4: Tri-66 anti-BCMA-GPRC5D-CD3 trispecific antibody (other)
VHH: EVQLVESGGGLVQPGGSLRLSCAASESISSIHIMAWYRQAPGKQRELVAGIRNDGSTVYVDSVKGRFTISRDNAKNSLYLQMNSLRAEDTAVYYCNADQGFGSYSEWERRSRWGQGTTVTVSS
VH 1: EVQLVQSGAEVKKPGASVKVSCKTSGYIFTNFGITWVRQAPGQRLEWMGENYPRRINTYYNEKFKGRVTITADKSASTAYMELSSLRSEDTAVYYCSRKDIFGLSYALDYWGQGTTVTVSS
VL 1: DIQMTQSPSSLSASVGDRVTITCKASQNVGTNVAWYQHKPGKSPKALIYSASYQYSGVPSRFSGSGSGTDFTLTISSLQPEDVATYICQQYKNYPYTFGGGTKVEIK
VH 2: EVQLVESGGGVVQPGRSLRLSCAASGFTFTDYYMSWVRQAPGKGLEWVAMSRNKAKGHTIEYSSSVKGRFTISRDNSKNTLYLQMNSLRAEDTAVYYCARDTYESYDGYFDVWGQGTTVTVSS
VL 2: DIVMTQSPDSLAVSLGERATINCKSSQSLFNSRSRKNYLAWYQQKPGQTPKLLIYWASIRESGVPDRFSGSGSGTDFTLTISSLQAEDVAVYYCKQSYYLYTFGQGTKLEIK
chain 1: ESKYGPPCPPCPAPEAAGGPSVFLFPPKPKDTLMISRTPEVTCVVVDVSQEDPEVQFNWYVDGVEVHNAKTKPREEQFNSTYRVVSVLTVLHQDWLNGKEYKCKVSNKGLPSSIEKTISKAKGQPREPQVYTLPPSQEEMTKNQVSLWCLVKGFYPSDIAVEWESNGQPENNYKTTPPVLDSDGSFFLYSRLTVDKSRWQEGNVFSCSVMHEALHNHYTQKSLSLSLG
chain 2: ESKYGPPCPPCPAPEAAGGPSVFLFPPKPKDTLMISRTPEVTCVVVDVSQEDPEVQFNWYVDGVEVHNAKTKPREEQFNSTYRVVSVLTVLHQDWLNGKEYKCKVSNKGLPSSIEKTISKAKGQPREPQVYTLPPSQEEMTKNQVSLSCAVKGFYPSDIAVEWESNGQPENNYKTTPPVLDSDGSFFLVSRLTVDKSRWQEGNVFSCSVMHEALHNHYTQKSLSLSLG
notes: as for B2
B5: antiFITC×CD3-Hab01 (negative control antibody, prepared internally) (bispecific antibody, human IgG4 S228P, kappa, F234A L235A)
heavy: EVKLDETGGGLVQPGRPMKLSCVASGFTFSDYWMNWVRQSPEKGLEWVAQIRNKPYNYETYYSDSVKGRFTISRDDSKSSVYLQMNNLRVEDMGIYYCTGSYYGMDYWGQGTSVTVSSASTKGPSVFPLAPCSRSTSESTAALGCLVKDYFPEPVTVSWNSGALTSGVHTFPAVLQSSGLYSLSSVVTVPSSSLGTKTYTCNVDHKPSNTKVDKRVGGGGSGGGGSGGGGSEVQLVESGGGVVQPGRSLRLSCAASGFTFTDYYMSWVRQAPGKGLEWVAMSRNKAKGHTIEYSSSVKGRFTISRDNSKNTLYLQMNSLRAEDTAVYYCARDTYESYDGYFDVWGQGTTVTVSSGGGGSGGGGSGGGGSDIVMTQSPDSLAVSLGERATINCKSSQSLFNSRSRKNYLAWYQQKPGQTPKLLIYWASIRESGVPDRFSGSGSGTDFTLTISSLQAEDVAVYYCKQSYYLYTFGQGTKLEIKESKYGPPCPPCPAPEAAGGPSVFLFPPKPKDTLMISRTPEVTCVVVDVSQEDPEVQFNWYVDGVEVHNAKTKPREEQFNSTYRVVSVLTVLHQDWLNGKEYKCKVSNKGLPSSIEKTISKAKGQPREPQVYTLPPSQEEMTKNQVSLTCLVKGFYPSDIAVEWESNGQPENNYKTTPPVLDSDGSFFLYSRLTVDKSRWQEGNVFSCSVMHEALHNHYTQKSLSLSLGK
light: DVVMTQTPLSLPVSLGDQASISCRSSQSLVHSNGNTYLRWYLQKPGQSPKVLIYKVSNRFSGVPDRFSGSGSGTDFTLKISRVEAEDLGVYFCSQSTHVPWTFGGGTKLEIKRTVAAPSVFIFPPSDEQLKSGTASVVCLLNNFYPREAKVQWKVDNALQSGNSQESVTEQDSKDSTYSLSSTLTLSKADYEKHKVYACEVTHQGLSSPVTKSFNRGEC
notes: Negative control for the tumor antigens
B6: JNJ7564 (bispecific antibody targeting GPRC5D and CD3, Johnson & Johnson, WO 2019220368 A1) (bispecific antibody, human IgG4 S228P, kappa, lambda, F234A L235A)
heavy 1: not shown
light 1: DIQMTQSPSSLSASVGDRVTITCKASQNVATHVGWYQQKPGKAPKRLIYSASYRYSGVPSRFSGSGSGTEFTLTISNLQPEDFATYYCQQYNRYPYTFGQGTKLEIKRTVAAPSVFIFPPSDEQLKSGTASVVCLLNNFYPREAKVQWKVDNALQSGNSQESVTEQDSKDSTYSLSSTLTLSKADYEKHKVYACEVTHQGLSSPVTKSFNRGEC
heavy 2: EVQLVESGGGLVQPGGSLRLSCAASGFTFNTYAMNWVRQAPGKGLEWVARIRSKYNNYATYYAASVKGRFTISRDDSKNSLYLQMNSLKTEDTAVYYCARHGNFGNSYVSWFAYWGQGTLVTVSSASTKGPSVFPLAPCSRSTSESTAALGCLVKDYFPEPVTVSWNSGALTSGVHTFPAVLQSSGLYSLSSVVTVPSSSLGTKTYTCNVDHKPSNTKVDKRVESKYGPPCPPCPAPEAAGGPSVFLFPPKPKDTLMISRTPEVTCVVVDVSQEDPEVQFNWYVDGVEVHNAKTKPREEQFNSTYRVVSVLTVLHQDWLNGKEYKCKVSNKGLPSSIEKTISKAKGQPREPQVYTLPPSQEEMTKNQVSLTCLVKGFYPSDIAVEWESNGQPENNYKTTPPVLDSDGSFLLYSKLTVDKSRWQEGNVFSCSVMHEALHNHYTQKSLSLSLGK
light 2: QTVVTQEPSLTVSPGGTVTLTCRSSTGAVTTSNYANWVQQKPGQAPRGLIGGTNKRAPGTPARFSGSLLGGKAALTLSGVQPEDEAEYYCALWYSNLWVFGGGTKLTVLGQPKAAPSVTLFPPSSEELQANKATLVCLISDFYPGAVTVAWKADSSPVKAGVETTTPSKQSNNKYAASSYLSLTPEQWKSHRSYSCQVTHEGSTVEKTVAPTECS
notes: Positive control, made by reduction and reoxidation of the two monospecific antibodies

Experiments:
[1] = target: T2, monkey CD3, on activated monkey PBMC (monkey); assay: FACS, activated monkey PBMC
T2 construct: whole, on cells
T2 sequence (Q95LI5 22-198): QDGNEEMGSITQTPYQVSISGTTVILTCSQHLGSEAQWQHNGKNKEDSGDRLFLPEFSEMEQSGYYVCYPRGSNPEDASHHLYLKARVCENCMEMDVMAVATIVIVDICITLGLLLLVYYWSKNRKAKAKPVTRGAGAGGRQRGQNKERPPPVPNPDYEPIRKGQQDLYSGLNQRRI

[2] = target: T1, human BCMA (B cell maturation antigen), …; assay: FACS, Flp-inCHO-human BCMA cells
Procedure: (§1) Flp-inCHO-human BCMA cells and CHOK1-human GPRC5D cells were scale-up cultured in T-75 cell culture flask to the logarithmic growth phase, respectively, and the cells were pipetted to obtain a single cell suspension. After the cells were counted and centrifuged, the cell precipitate was resuspended to 2×10⁶ cells per milliliter with a FACS buffer (PBS+2% fetal bovine serum). The suspension was added to a 96-well FACS reaction plate at 50 μl/well. 8 concentrations of the anti-BCMA-GPRC5D-CD3 antibodies or control antibodies were added at 50 μl/well, wherein gradient dilution was performed at a dilution ratio of 5 from a concentration of 100 nM. The cells were incubated at 4° C. for 1 h. The obtained mixture was centrifuged and washed 3 times with a PBS buffer. […] The obtained mixture was centrifuged and washed 3 times with a PBS buffer. 100 μl of the mixture was taken for detection and result analysis by FACS (FACS Canto™, purchased from BD Company). Data analysis was performed by software (FlowJo) to obtain the mean fluorescence intensity (MFI) of the cells. Then, a software (GraphPad Prism8) was used for analysis, data fitting and EC50 calculation.

[3] = target: T3, human GPRC5D, expressed on cells (human, UniProt Q9NZD1 1-345); assay: FACS, CHOK1-human GPRC5D cells
T3 construct: whole, on cells; Overexpressed on CHOK1 cells; also called CHOK1-human GPRC5D cells
T3 sequence (Q9NZD1 whole entry): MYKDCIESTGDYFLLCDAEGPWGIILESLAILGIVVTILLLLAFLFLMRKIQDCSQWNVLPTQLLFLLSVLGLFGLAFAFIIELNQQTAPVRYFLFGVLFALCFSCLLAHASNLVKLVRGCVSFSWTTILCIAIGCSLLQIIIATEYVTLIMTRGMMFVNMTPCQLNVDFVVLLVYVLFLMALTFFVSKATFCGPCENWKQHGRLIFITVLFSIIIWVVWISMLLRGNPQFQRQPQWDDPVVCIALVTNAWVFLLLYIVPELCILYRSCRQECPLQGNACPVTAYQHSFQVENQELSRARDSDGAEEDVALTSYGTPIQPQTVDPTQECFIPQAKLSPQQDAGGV
Procedure: as §1

Binder	EC50 [1]	EC50 [2] [nM]	EC50 [3] [nM]
B1	161 nM	–	–
B2	–	2.54	1.66
B3	–	4.43	2.06
B4	–	1.09	1.53
B5	15.2 nM and 12.4 nM	–	–
B6	5.79 nM and 5.72 nM	–	–
